Test results taken from the supplement of paper PMC12042874.
± gives the uncertainty stated by the source.

assay: amyloid nucleation score (Sup35N fusion, yeast selection) (log enrichment); library NNK1; higher = more nucleation; inactive = no reads after selection
Procedure, shortened: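 Peptides of 20 random codons, each fused to Sup35N, were expressed in psi-negative yeast. Cells were induced with 100 μM copper sulfate for 24 hours and grown 7 days at 30°C on medium lacking adenine and uracil, and plasmid inserts before and after selection were Illumina-sequenced. Nucleation scores are DiMSum log enrichments of output over input reads, centred on the mode score of non-aggregating sequences, and sequences under 100 input reads were excluded.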

| Substance | amyloid nucleation score |
| --- | --- |
| RYCVGLVRICLKLGVREICS | 1.01 ± 0.97 |
| RYGRYSCSIIEGLCLMSSKW | 0.676 ± 0.95 |
| RYMVGSENEIRL | 0.583 ± 0.29 |
| RYNRLCTSLGRFKVVKSILS | 0.131 ± 0.33 |
| RYSLFIVSYCDGHRSSTRNM | inactive |
| RYVSVTGYDAQCRYCDKGTG | -0.326 ± 0.44 |
| RYYVSSLRPVRRQSRKDGCG | -0.414 ± 0.63 |
| RYYYAQEWPVALFLSRPKVP | 0.406 ± 0.63 |
| SACQLFGVMVPEHRRALMVW | 0.018 ± 0.42 |
| SADKSSFKPFLESTASRVQI | -0.62 ± 1.1 |
| SAELKDLRGKQLLAGGP | 0.53 ± 1.1 |
| SAIMEVLRMDDTCLWSNWVM | 0.057 ± 0.37 |
| SAMAWIPFTISPRFEFRTCN | 5.16 ± 0.061 |
| SASGAWSGWPHRKVGYGSSL | 0.664 ± 0.36 |
| SATASNGRMAGSVSSWRKRW | 0.219 ± 0.36 |
| SAVSMVR | -0.594 ± 0.55 |
| SAVVTRMGGGLKLRTWHEGN | 0.53 ± 0.55 |
| SAVWEVVEGDVLMWSYMKSP | 0.019 ± 0.33 |
| SCAYQGKLSIAAMLVSGFGC | 1.16 ± 0.97 |
| SCDYGL | 0.512 ± 0.63 |
| SCERW | -0.111 ± 0.45 |
| SCKGQPARVTCETRFTGYER | 2.32 ± 0.49 |
| SCLPFLGYPFQDVGLIFLVA | 0.749 ± 0.51 |
| SCLWSSCCVV | 0.171 ± 0.44 |
| SCMRSKWKNTWLKYRYVNCI | -0.493 ± 0.62 |

| Substance | amyloid nucleation score |
| --- | --- |
| SCNWDRNVLDMFFLN | inactive |
| SCQSALLRILGSRVSFQARA | -0.192 ± 0.49 |
| SCRLIDWVPSHSRYRTFCCE | -0.386 ± 0.37 |
| SCTFKMMMGSVLL | 4.45 ± 0.067 |
| SCVAVSNNMILPRVSGLFEG | 2.55 ± 0.15 |
| SCVLESIQEFWS | -0.3 ± 0.24 |
| SCYMHVR | 0.372 ± 0.52 |
| SDDRLATCTFCLYSRIKQVK | -0.651 ± 1.7 |
| SDMLK | 0.324 ± 0.43 |
| SDQSPFLIGVPWFVIYNRGG | 1.69 ± 0.11 |
| SDSFLSSYHSFMRDVWV | 0.872 ± 0.58 |
| SDVEEGLRL | 1.08 ± 0.57 |
| SDYIWWRLCGGIKCQGGELG | -1.74 ± 2.1 |
| SDYSLTCMGVYGEGKTRGNL | 0.045 ± 0.32 |
| SECIVFYIPTYKHD | 7.909 ± 0.059 |
| SEFHFMRT | -0.482 ± 1.7 |
| SEHILFLCCMMVGSVVSSAC | inactive |
| SEKRR | 0.075 ± 0.26 |
| SERTMMSDKLSKRSLPCSLR | -0.717 ± 0.63 |
| SESKGHHKCRRALLYRGM | 0.418 ± 1.2 |
| SEVSISGVVYFDHREVVEV | -0.165 ± 1.4 |
| SEYTLLTFKSFGNRAPHFVG | 1.75 ± 0.19 |
| SFAQLMGGAVSHYVFLPWNA | -0.525 ± 0.85 |
| SFDADFSFRVRVFYDQSISI | -0.035 ± 0.48 |
| SFDKARRARGRSLAWML | 0.072 ± 0.54 |

| Substance | amyloid nucleation score |
| --- | --- |
| SFGANYTLILTVIIQRLADQ | 6.31 ± 0.083 |
| SFGPIVCGFVVKRMWKCNIG | 3.63 ± 0.12 |
| SFGTQPGQISVN | -0.856 ± 2.4 |
| SFIDDCP | inactive |
| SFIFLILMSAWFPFMRVTFG | 0.198 ± 0.64 |
| SFKPSSFKFTIT | -0.605 ± 0.41 |
| SFLLKKKVPWPFFCTCMLVG | -0.575 ± 1.5 |
| SFNKDRKIYTRPELRFMMFL | -0.707 ± 1.7 |
| SFRYFKLSCYFFFLVFAVFF | -1.02 ± 2.4 |
| SFRYVGCWYMARWFS | -0.497 ± 0.3 |
| SFTGVDHSQLNDFSATNNAS | 0.653 ± 0.55 |
| SFTNDSSRSWRHTRLGSCCE | 1.48 ± 0.63 |
| SFVRGFYVNFRFSKGILDMF | -0.082 ± 0.32 |
| SGCCVASFYHRDSILSCEKA | 0.446 ± 0.58 |
| SGCGPNGIRFWVRLEVGNTT | 0.016 ± 0.33 |
| SGCRYSAIVGSPMRCNMYRS | -0.756 ± 2.4 |
| SGMHHHDKARNRG | 1.26 ± 0.59 |
| SGMYSMYQDKT | -0.716 ± 0.5 |
| SGNTGPFRCARAADNSNFKG | -0.922 ± 0.67 |
| SGPGDKVAISMNIY | 5.16 ± 0.087 |
| SGRPLNNVWGVTWEIMRLSL | -0.839 ± 0.86 |
| SGRRTYMLRMLQWVGVIAYR | -2.36 ± 2.4 |
| SGVLVGYHRDLDVDMNLNPM | -0.419 ± 0.4 |
| SGVWNEFEGCWMVDDVIDPL | 0.268 ± 0.44 |
| SGWCGSTFSCERNPTVYSSC | 1.96 ± 0.26 |

| Substance | amyloid nucleation score |
| --- | --- |
| SGYMWMFMSHRNEFRTEVRW | 0.385 ± 0.37 |
| SHGRMCQLEYWSLRKGRGAG | 0.229 ± 0.59 |
| SHIRSWVRSAHAWYIWHGKT | 0.466 ± 0.44 |
| SHPVIL | 0.039 ± 0.29 |
| SHREMPSPIGMVSSSFMRVT | 0.539 ± 0.9 |
| SHSTFAVQMRA | 8.273 ± 0.047 |
| SHVVCVCLRDLPRIFVFVEK | 6.63 ± 0.07 |
| SIANNKRTKTVGLMLSCRSS | 3.79 ± 0.14 |
| SIDRIRVSVHPLAFKIYLDV | 0.497 ± 0.43 |
| SIDTPYFALNRCALIHTSFT | 0.825 ± 0.52 |
| SIFRTKTTFLRNVQLEWLGG | -0.211 ± 0.86 |
| SIFWSRTVLLMN | 5.97 ± 0.1 |
| SIGNKYKSIVWYFKCCLANL | 5.97 ± 0.066 |
| SIGPFKTYCTAAWP | -0.502 ± 0.36 |
| SIHGGFYTLPE | 1.15 ± 0.51 |
| SIHVGVSRG | 0.806 ± 0.35 |
| SILSWLFSWTMLEEVI | inactive |
| SIMSFH | inactive |
| SIQCKKFGGIWCTDTRSIGP | 1.33 ± 0.33 |
| SIQLMNVFDQVVSQASIKHG | inactive |
| SIRCLIREKA | -0.238 ± 0.75 |
| SIRLVLRFLTA | -0.166 ± 0.46 |
| SIRMGSEVRSDNEMVMRWQM | 3.67 ± 0.16 |
| SIRSVLFVSTVDDTPPYQGF | inactive |
| SIRVSDYQRVFNNIGMSNCN | -0.454 ± 0.53 |

| Substance | amyloid nucleation score |
| --- | --- |
| SISNPRSLLYVSRSYNSDEF | -0.956 ± 0.8 |
| SISNTLLGLEEWLPNYVNVF | 0.871 ± 0.49 |
| SITVVSNEFNVVNVILCGCY | 7.009 ± 0.046 |
| SIYCGDTQDVVPIVSHLSNL | 0.187 ± 0.29 |
| SKEFPHMYFFGVRFVVVTKV | -0.246 ± 0.45 |
| SKFIYRRLKELFVFGYSIVT | inactive |
| SKKSSRDLNSTSGRR | -0.808 ± 1.4 |
| SKLMTRVTVWLGSYGRGSWH | 0.629 ± 0.83 |
| SKYRLNAMWSACRQRWANIG | -0.995 ± 1.7 |
| SLCGTS | -0.222 ± 0.46 |
| SLDCWLMGGRTANLVRRLGR | -0.39 ± 0.95 |
| SLDVICPGVYLEMLGRESIL | -0.416 ± 0.84 |
| SLFKNR | 0.171 ± 0.61 |
| SLFLAGIMDIRGWYVVASTP | -0.34 ± 0.54 |
| SLFMDRFNVDVI | -0.107 ± 0.35 |
| SLHSDVRHRRVVYVVREIAY | -0.096 ± 1.1 |
| SLIKLVYWSHARNNCELW | 3.5 ± 0.074 |
| SLIRSMTISDNLIMWAGWTY | -0.7 ± 0.38 |
| SLLNTELQIKAQYDQMSHRR | 0.36 ± 0.44 |
| SLLYSITNVCTLRGRMCCLA | 0.116 ± 0.45 |
| SLMCSPNGDESRQWNPRARQ | inactive |
| SLMGALEIQRCSAFSSFLFR | 1.32 ± 0.41 |
| SLMIDRTRLGGN | 0.769 ± 0.17 |
| SLMRPCKCNAYCMIELITLY | inactive |
| SLMSLLLNFVNLTNNNLSPF | -2.99 ± 1.6 |

| Substance | amyloid nucleation score |
| --- | --- |
| SLNREYVYKRGGVREWCRYL | 0.856 ± 0.59 |
| SLPQKGIHWRQYL | 0.368 ± 0.61 |
| SLQAIGNWYHD | 0.038 ± 0.6 |
| SLRSPWDRCSFRHFLPFFTM | -0.735 ± 0.69 |
| SLRVTLTGQTDLASEFQWWL | inactive |
| SLSCTTLCLEYYRYCVRTYG | 0.196 ± 0.7 |
| SLSMSRIQMHNRYKPGTQFD | 1.07 ± 0.46 |
| SLSTVNRKAV | -0.637 ± 0.57 |
| SLTVLCKVFFSCNQAGLLHG | 0.17 ± 0.5 |
| SLVPVYI | 0.167 ± 0.35 |
| SLVVEMVNYE | -0.039 ± 0.29 |
| SMAIVDRWLMQGSSQPAGS | 0.702 ± 0.53 |
| SMFNQRWWVSPVVYGLIVWP | 1.33 ± 0.79 |
| SMGLYRDLRLKCFC | 1.02 ± 0.47 |
| SMMKRVTAVVNVFYRFDIKA | inactive |
| SMSPTDICYWCLYHSAYIRD | 1.55 ± 0.3 |
| SMVYAYAAIILGWWNWGRGC | 0.003 ± 1.1 |
| SMWVWMHICEAMG | 4.6 ± 0.11 |
| SNFHRNVYRGYRV | inactive |
| SNFVALYDRYNCFSVCIYCG | 5.78 ± 0.063 |
| SNIREPDFRCIGLATF | 0.523 ± 0.7 |
| SNISSHQEASWRAYRFSESV | 0.147 ± 0.57 |
| SNLHNCLRGNGCWVIAIDVV | -0.251 ± 0.81 |
| SNLVCII | 0.211 ± 0.59 |
| SNTRFSCRSPWVCTFFVREV | 0.085 ± 0.52 |

| Substance | amyloid nucleation score |
| --- | --- |
| SNVICRGR | 1.41 ± 0.31 |
| SPAMYPHNSRFLMYITSFMQ | 1.08 ± 0.72 |
| SPGVDGWNPWVDTVLRKVSK | -0.776 ± 0.61 |
| SPHAIGRYLSFCRFCGTAAR | -0.026 ± 0.35 |
| SPLFPRKLQVQYKTYPYG | inactive |
| SPQQVSLVGWSRWTEPRTS | -0.211 ± 0.36 |
| SPRRLGAVMVSRRVGVGKGW | 0.402 ± 1.4 |
| SPSSVYVINLNSNLRGNGFA | 7.08 ± 0.078 |
| SPTIVIKHRLNLESKRGYKV | -0.216 ± 0.44 |
| SPWFAHITPRVIMEERH | -1.18 ± 0.79 |
| SQCLSKLLSIDISRCWAGQM | 2.59 ± 0.46 |
| SQIADHIRSPRNL | -1.37 ± 2.1 |
| SQIASVINAQSSMCRFV | -0.023 ± 0.38 |
| SQLVHERNSVGFEIVWMNHL | -0.249 ± 1.7 |
| SQMAVYRPHLLVSSFMFTRS | 0.274 ± 0.57 |
| SQSTLCSHTP | 1.13 ± 0.74 |
| SQVEVIVYNVVSFTDGVRLA | 3.89 ± 0.097 |
| SQYQTLDVHIKGNVCSNLDM | 0.012 ± 1.6 |
| SQYSADSVHGCHLSVSPTWF | 1 ± 0.81 |
